Changes are numbered by the printed parent chain.
B1: anti-KDR monoclonal antibody 29D4 (antibody, V domains shown)
VH: QLQLQESGPGLVKPSETLSLTCTVSGGSISSRSNYWGWIRQPPGKGLEWIGTIYYSGHTYYNPSLKSRVSISVDTSKNQFSLKLSSVTATDTALYYCARQQLVLYYFEYWGQGTLVTVSS
VL: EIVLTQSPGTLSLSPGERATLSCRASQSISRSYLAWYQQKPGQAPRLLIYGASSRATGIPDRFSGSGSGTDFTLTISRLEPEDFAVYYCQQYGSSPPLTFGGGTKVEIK
notes: Fully human mAb from XenoMouse (IgG2 or IgG4 strain); hybridoma supernatant
B2: anti-KDR monoclonal antibody 32F4 (antibody, V domains shown)
VH: B1 VH with E16G, T21S, N34D, H58N, Y60F, S70T, N78K, T90A, L94V, E108D
VL: EIVLTQSPGTLSLSPGERATLSCRTSQSVSSSYLAWYQQKPGQAPRLLIYGASSRATGVPDRFSGSGSGTDFSLTISRLEPEDFAVYYCQQYGSSPPLTFGGGTKVEIK
notes: as for B1
B3: 30H10 (antibody, V domains shown)
VH: EVQLLESGGGLVQPGGSLRLSCAASGFTFSNYAMSWVRQAPGKGLEWVSAISGSGGITYYADSVKGRFTISRDNSKNTLFLQMNSLRAEDTAVYYCAKASGDNWGQGTLVSVSS
VL: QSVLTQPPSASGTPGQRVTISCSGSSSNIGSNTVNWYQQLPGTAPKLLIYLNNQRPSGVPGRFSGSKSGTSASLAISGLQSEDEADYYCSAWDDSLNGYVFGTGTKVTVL
notes: Fully human monoclonal antibody from a XenoMouse hybridoma (IgG2 or IgG4 strain), purified
B4: anti-KDR monoclonal antibody 31E11 (antibody, V domains shown)
VH: QVQLVESGGGLVKPGGSLRLSCAASGFTFSDYYMSWIRQAPGKGLEWVSYISISGSTIYYADSVKGRFTISRDNAKNSLYLQMNSLRAEDTAVYYCARDDFWSGYYFNWFDPWGQGTLVTVSS
VL: DIQMTQSPSSLSASVGDRVTITCRANQTISTFLNWYQQNPGKAPKLLIYAASSLQSGVPSRFSGSGSGTDFTLTISSLQPEDFATYYCQQTYIIPLTFGGGTKVEIK
notes: as for B1
B5: 29H3 (antibody, V domains shown)
VH: QVQLVQSGAEVKKPGASVKVSCKASGYTFTSYDINWVRQATGQGLEWMGWMNPNSGKTGYAQKFQGRVTMTRNTSINTAYMELSSLRSEDTAVYYCARGGYSNLGWFDPWGQGTLVTVSS
VL: DIQMTQSPSSVSASVGDRVTITCRASQGISSWLVWYHQKPGKAPKLLIYGASSLQSGVPSRFSGSGSGTDFTLTISSLQPEDFATYYCQQANNFPFTFGPGTKVDIK
notes: as for B3

Tests used:
[1] = target: T1, mouse KDR (Flk-1)/Fc (Cat. #443-KD/CF, R&D Systems) (mouse, UniProt P35918 20-762); assay: ELISA, plate-coated Flk-1/Fc 500 ng/mL, hybridoma supernatant 1:5
T1 construct: Bought reagent; also called mouse VEGFR2; KDR mouse ortholog; Fc part of the bought chimera not given
Description: The cross-reactivity of antibodies in the hybridoma supernatant was tested against KDR mouse ortholog (mouse VEGFR2, or Flk-1) and human VEGFR1 (Flt-1). Cross-reactivity was measured using an ELISA based assay.
After washing and blocking the plates, the antibody-containing supernatants were added (at 1:5 dilution) into the coated wells and incubated for one hour at room temperature. The plates were then incubated with mouse anti-human IgG 2, 3 and 4 and subsequently with goat anti-mouse IgG Fc POD, to detect and measure bound antibodies.

[2] = target: T2, human KDR (VEGFR2) on cells (human, UniProt P35968 20-1356); assay: cell-based or functional assay
[3] = target: T2, human KDR (VEGFR2) on cells; assay: cell-based or functional assay; remark: listed apart in the source
[4] = target: T2, human KDR (VEGFR2) on cells; assay: FACS on HUVEC, hybridoma supernatant 1:50
Outline: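 HUVECs incubated 1 h at 4° C with hybridoma supernatant at 1:50, then Cy5 goat anti-human antibody (5 μg/mL) plus 7AAD (5 μg/mL) for 15 min at 4° C. Cell-surface binding read by FACS; goat anti-KDR antibody as positive control, irrelevant hybridoma supernatants as negative controls.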

[5] = target: T2, human KDR (VEGFR2) on cells; assay: cell-based or functional assay; remark: listed apart in the source
[6] = target: T3, b-KDRIg4-7-myc-his (UniProt P35968 328-764, prefix 'b-' not explained; captured on neutravidin-coated plates (presumably biotinylated, site not stated)); assay: ELISA, b-KDRIg4-7-myc-his 1 ug/mL on neutravidin, hybridoma supernatant 1:5
T3 construct: domain: Ig4-7; The text calls it 'a KDR antibody containing the Ig4-7 domain'; it is read as the KDR fragment; Purified on a nickel column; also called Ig4-7 domain of KDR; soluble KDR Ig4-7; not shown: myc-his tag of the pSecTag vector
Description: To screen by binding to the Ig4-7 domain of KDR, plates were first coated with neutravadin (Pierce) at 4 μg/mL and incubated overnight at 4° C. The plates were then blocked and subsequently incubated with b-KDRIg4-7-myc-his at 1 μg/mL for one hour at room temperature. Candidate hybridoma supernatants (at 1:5 dilution) were transferred to the plates and incubated for one hour at room temperature. The plates were then washed and incubated with goat anti-human IgG Fc POD (at 1:4000 dilution) for one hour at room temperature.

[7] = target: T4, soluble KDR (VEGF Receptor 2 D1-7, Cat. #676490, Calbiochem) (human, UniProt P35968 20-764); assay: ELISA, plate-coated soluble KDR 250 ng/mL, hybridoma supernatant 1:5
T4 construct: extracellular domain; Bought reagent; also called soluble human KDR; immobilized soluble KDR
Description: To screen by binding to immobilized soluble KDR, plates were coated with KDR (Calbiochem) at 250 ng/mL overnight at 4° C. After blocking and washing the coated plates, the candidate hybridoma supernatants (at 1:5 dilution) were transferred to the plates and incubated for one hour at room temperature. The plates were then washed and incubated with secondary antibody (at 1:4000 dilution) for one hour at room temperature.

[8] = target: T5, whole KDR-ECD (Cat. # 676490, Calbiochem) (human, UniProt P35968 20-764); assay: ELISA, KDR-ECD coat 5 ug/mL, antibody 0.1 ug/mL
T5 construct: extracellular domain; Bought soluble protein; also called soluble KDR; VEGF Receptor 2 D1-7
Description: (§1) The cross-reactivity of purified antibodies was tested against KDR mouse ortholog KDR mouse ortholog (mouse VEGFR2, or Flk-1) and human VEGFR1 (Flt-1). The ability of the antibodies to bind soluble KDR Ig4-7 domain and to the entire KDR extracellular domain (ECD) was also measured.
(§2) Cross-reactivity experiments were carried out and measured using an ELISA based assay as described in Example 6. […] Antibody controls included IgG1 and IgG4 (Sigma-Aldrich, Cat. #15154 and #14639, respectively).

[9] = target: T6, soluble KDR Ig4-7 domain (human, UniProt P35968 328-764); assay: ELISA, KDR Ig4-7 coat (1:1 diln.), antibody 0.1 ug/mL
T6 construct: domain: Ig4-7 domain; also called b-KDRIg4-7-myc-his; Ig4-7 domain of KDR; not shown: myc-his tag of the pSecTag construct
Description: as §1, §2

[10] = target: T5, whole KDR-ECD (Cat. # 676490, …); assay: ELISA, KDR-ECD coat 5 ug/mL, antibody 0.01 ug/mL
Description: as §1, §2

[11] = target: T7, human KDR (human, UniProt P35968 20-1356); assay: cell-based or functional assay
[12] = target: T7, human KDR; assay: cell-based or functional assay; remark: listed apart in the source
[13] = target: T7, human KDR; assay: FACS titration of purified antibody on HUVEC cells (FACS Kd)
Description: The binding affinities of the purified antibodies for endogenously-expressed KDR in HUVEC cells was measured. HUVEC cells were seeded at 150,000 cells/well and incubated with titrations of purified antibody for 4 hours at 4° C. The cells were then washed and incubated with goat anti-human IgG-Fc-Cy5+5 μg/mL 7-Amino-Actinomycin (7AAD) for 30 minutes at 4° C. Bound KDR was detected using FACS analysis.

[14] = target: T7, human KDR; assay: cell-based or functional assay; remark: listed apart in the source
[15] = target: T6, soluble KDR Ig4-7 domain; assay: ELISA, KDR Ig4-7 coat (1:1 diln.), antibody 0.01 ug/mL
Description: as §1, §2

[16] = target: T5, whole KDR-ECD (Cat. # 676490, …); assay: ELISA, KDR-ECD coat 5 ug/mL, antibody 1 ug/mL
Description: as §1, §2

[17] = target: T6, soluble KDR Ig4-7 domain; assay: ELISA, KDR Ig4-7 coat (1:1 diln.), antibody 1 ug/mL
Description: as §1, §2

[18] = target: T8, mouse KDR (Flk-1)/Fc (Cat. #443-KD/CF, R&D Systems, Inc.) (mouse, UniProt P35918 20-762); assay: ELISA, Flk-1 coat 5 ug/mL, antibody 0.1 ug/mL
T8 construct: Bought reagent; also called mouse VEGFR2; KDR mouse ortholog; not shown: Fc of the bought fusion protein
Description: as §1, §2

[19] = target: T8, mouse KDR (Flk-1)/Fc (Cat. #443-KD/CF, …); assay: ELISA, Flk-1 coat 5 ug/mL, antibody 1 ug/mL
Description: as §1, §2

[20] = target: T8, mouse KDR (Flk-1)/Fc (Cat. #443-KD/CF, …); assay: ELISA, Flk-1 coat 5 ug/mL, antibody 0.01 ug/mL
Description: as §1, §2

T6 sequence (P35968 328-764): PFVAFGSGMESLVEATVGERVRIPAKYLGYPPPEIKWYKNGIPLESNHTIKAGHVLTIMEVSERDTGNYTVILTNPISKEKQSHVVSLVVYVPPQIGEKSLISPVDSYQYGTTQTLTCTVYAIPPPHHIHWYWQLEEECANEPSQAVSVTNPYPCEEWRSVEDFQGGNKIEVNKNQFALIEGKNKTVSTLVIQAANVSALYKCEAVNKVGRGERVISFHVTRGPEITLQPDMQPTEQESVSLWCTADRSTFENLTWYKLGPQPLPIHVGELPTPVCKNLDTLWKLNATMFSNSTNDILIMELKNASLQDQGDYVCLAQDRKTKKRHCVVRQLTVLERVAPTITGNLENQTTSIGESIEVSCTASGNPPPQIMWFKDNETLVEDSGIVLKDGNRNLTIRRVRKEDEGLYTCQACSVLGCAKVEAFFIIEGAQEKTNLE
T3 sequence (P35968 328-764): as above
T4 sequence (P35968 20-764): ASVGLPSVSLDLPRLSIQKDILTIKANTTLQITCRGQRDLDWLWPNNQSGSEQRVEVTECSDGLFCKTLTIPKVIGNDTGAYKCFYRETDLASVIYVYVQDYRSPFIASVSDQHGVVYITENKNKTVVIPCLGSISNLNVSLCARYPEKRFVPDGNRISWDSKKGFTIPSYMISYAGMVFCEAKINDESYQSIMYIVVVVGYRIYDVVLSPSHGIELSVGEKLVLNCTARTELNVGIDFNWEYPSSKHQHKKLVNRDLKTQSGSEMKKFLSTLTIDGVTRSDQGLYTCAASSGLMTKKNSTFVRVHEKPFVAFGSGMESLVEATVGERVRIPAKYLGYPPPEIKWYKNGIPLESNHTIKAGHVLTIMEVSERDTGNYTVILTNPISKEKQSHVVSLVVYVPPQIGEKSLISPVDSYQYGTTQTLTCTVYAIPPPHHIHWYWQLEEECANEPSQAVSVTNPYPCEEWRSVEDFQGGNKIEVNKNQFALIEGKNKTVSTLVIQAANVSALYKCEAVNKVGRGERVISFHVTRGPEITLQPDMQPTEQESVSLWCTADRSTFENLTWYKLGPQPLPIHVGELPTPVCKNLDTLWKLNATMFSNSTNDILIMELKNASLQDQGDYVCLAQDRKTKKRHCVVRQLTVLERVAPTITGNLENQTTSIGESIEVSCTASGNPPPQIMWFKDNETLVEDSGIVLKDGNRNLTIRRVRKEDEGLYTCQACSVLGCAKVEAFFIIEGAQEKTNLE
T5 sequence (P35968 20-764): as above
T2 sequence (P35968 20-1356): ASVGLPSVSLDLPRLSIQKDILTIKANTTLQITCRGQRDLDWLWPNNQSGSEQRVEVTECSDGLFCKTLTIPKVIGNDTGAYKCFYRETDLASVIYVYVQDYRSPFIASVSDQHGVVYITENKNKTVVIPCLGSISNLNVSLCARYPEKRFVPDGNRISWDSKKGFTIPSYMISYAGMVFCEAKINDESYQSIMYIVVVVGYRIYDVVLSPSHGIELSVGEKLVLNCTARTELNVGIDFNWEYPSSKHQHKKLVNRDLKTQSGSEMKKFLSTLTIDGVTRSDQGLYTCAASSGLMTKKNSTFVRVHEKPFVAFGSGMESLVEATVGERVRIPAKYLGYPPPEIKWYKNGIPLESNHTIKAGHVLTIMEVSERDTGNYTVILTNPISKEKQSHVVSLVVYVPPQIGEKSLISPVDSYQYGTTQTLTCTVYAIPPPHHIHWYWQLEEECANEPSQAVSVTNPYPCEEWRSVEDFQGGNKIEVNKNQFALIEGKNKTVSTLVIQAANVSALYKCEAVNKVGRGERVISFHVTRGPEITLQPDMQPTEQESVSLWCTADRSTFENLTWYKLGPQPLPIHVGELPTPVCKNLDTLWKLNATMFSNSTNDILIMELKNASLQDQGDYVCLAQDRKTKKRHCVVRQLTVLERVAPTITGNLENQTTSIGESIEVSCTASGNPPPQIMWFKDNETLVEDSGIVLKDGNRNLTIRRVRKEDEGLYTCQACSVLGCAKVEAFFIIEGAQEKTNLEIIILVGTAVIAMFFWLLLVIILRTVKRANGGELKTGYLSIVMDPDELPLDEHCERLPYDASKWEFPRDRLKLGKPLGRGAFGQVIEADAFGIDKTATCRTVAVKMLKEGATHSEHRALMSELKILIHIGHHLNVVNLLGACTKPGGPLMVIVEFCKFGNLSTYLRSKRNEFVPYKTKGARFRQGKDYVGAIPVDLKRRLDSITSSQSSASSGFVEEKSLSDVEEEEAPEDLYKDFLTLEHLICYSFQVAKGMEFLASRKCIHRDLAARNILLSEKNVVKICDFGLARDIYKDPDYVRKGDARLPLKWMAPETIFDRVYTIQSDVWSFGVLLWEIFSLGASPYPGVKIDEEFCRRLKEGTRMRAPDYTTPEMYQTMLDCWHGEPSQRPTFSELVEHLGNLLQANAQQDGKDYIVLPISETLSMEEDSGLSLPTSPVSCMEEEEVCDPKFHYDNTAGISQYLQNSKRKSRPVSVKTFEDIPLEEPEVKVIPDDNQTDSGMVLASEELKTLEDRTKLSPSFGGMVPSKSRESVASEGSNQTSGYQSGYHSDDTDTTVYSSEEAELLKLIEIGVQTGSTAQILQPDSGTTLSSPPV
T7 sequence (P35968 20-1356): as above
T1 sequence (P35918 20-762): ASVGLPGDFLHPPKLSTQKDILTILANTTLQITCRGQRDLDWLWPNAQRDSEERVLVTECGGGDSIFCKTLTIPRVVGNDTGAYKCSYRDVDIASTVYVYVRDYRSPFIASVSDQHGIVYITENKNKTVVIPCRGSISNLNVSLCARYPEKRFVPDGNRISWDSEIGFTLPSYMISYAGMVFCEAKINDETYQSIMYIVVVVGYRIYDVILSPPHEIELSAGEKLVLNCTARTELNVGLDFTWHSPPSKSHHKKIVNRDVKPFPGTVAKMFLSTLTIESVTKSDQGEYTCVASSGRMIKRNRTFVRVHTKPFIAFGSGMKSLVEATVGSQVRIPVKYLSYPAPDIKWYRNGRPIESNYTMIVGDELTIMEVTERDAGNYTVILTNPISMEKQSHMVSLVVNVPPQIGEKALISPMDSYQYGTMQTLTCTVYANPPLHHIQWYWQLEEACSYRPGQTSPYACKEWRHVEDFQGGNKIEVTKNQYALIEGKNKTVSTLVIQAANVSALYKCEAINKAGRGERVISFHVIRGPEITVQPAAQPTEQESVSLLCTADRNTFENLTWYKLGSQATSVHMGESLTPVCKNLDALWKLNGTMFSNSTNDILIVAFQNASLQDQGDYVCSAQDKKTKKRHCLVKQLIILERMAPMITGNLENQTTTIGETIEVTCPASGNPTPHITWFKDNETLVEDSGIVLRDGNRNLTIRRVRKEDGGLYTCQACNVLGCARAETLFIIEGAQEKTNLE
T8 sequence (P35918 20-762 limits assumed): as the sequence (P35918 20-762) above

| Binder | OD (450 nm) [1] [OD450] | % Inhibition of VEGF165-mediated pTyr Activity, Average [2] [%] | % Inhibition of VEGF165-mediated pTyr Activity, n = 1 [2] [%] | % Inhibition of VEGF165-mediated pTyr Activity, n = 2 [2] [%] | % Inhibition of VEGF165-mediated pTyr Activity, n = 3 [2] [%] | HUVEC survival (n = 1) 1:10 dilution of supernatant (RLU) [3] [RLU] | HUVEC survival (n = 2) 1:20 dilution of supernatant (RLU) [3] [RLU] | FACS Geometric Mean [4] | % Inhibition of VEGF-E-mediated pTyr Activity [5] [%] | b-KDRIg4-7 OD(450 nm) [6] [OD450] | KDR OD(450 nm) [7] [OD450] | ELISA reading [8] | ELISA reading [9] | ELISA reading [10] | HUVEC survival, Maximum Inhibition at 50 nM (% Inhibition), Average [11] [%] | HUVEC survival, Maximum Inhibition at 50 nM (% Inhibition), N = 1 [11] [%] | HUVEC survival, Maximum Inhibition at 50 nM (% Inhibition), N = 2 [11] [%] | KDR tyrosine phosphorylation in HUVEC, EC50 (nM), Average [12] [nM] | KDR tyrosine phosphorylation in HUVEC, EC50 (nM), N = 1 [12] [nM] | KDR tyrosine phosphorylation in HUVEC, EC50 (nM), N = 2 [12] [nM] | further results |
| --- | --- | --- | --- | --- | --- | --- | --- | --- | --- | --- | --- | --- | --- | --- | --- | --- | --- | --- | --- | --- | --- |
| B1 | 0.1 | 72 | 85 | 67 | 63 | 12900 | 5380 | 26 | 67 | 2.61 | 1 |  |  |  |  |  |  |  |  |  |  |
| B2 | 0.094 | 73 | 88 | 76 | 56 | 20100 | 5030 | 27 | 62 | 2.29 | 0.907 |  |  |  |  |  |  |  |  |  |  |
| B3 |  |  |  |  |  |  |  |  |  |  |  | 0.31 | 2.77 | 0.117 | -5 | -9 | -1 | 0.4 | 0.6 | 0.2 | KDR tyrosine phosphorylation in HUVEC, Maximum Inhibition at 100 nM (% Inhibition), Average [12]: 29%; KDR tyrosine phosphorylation in HUVEC, Maximum Inhibition at 100 nM (% Inhibition), N = 1 [12]: 36%; KDR tyrosine phosphorylation in HUVEC, Maximum Inhibition at 100 nM (% Inhibition), N = 2 [12]: 22%; Kd [13]: 0.9 nM; 6-keto Prostaglandin F1α release, Maximum Inhibition (% Inhibition), Average [14]: 3%; 6-keto Prostaglandin F1α release, Maximum Inhibition (% Inhibition), N = 1 (200 nM) [14]: 0%; 6-keto Prostaglandin F1α release, Maximum Inhibition (% Inhibition), N = 2 (333 nM) [14]: 6%; ELISA reading [15]: 1.36; ELISA reading [16]: 2.47; ELISA reading [17]: 3.04 |
| B4 | 0.162 | 74 | 81 | 80 | 59 | 9140 | 6980 | 18 | 67 | 1.28 | 1.14 |  |  |  |  |  |  |  |  |  |  |
| B5 |  |  |  |  |  |  |  |  |  |  |  | 0.306 | 2.36 | 0.099 | 11 | 4 | 18 | 0.4 | 0.5 | 0.4 | ELISA reading [18]: 2.35; ELISA reading [19]: 3.04; ELISA reading [20]: 1.14; KDR tyrosine phosphorylation in HUVEC, Maximum Inhibition at 100 nM (% Inhibition), Average [12]: 32%; KDR tyrosine phosphorylation in HUVEC, Maximum Inhibition at 100 nM (% Inhibition), N = 1 [12]: 33%; KDR tyrosine phosphorylation in HUVEC, Maximum Inhibition at 100 nM (% Inhibition), N = 2 [12]: 30%; Kd [13]: 0.5 nM; 6-keto Prostaglandin F1α release, Maximum Inhibition (% Inhibition), Average [14]: 5%; 6-keto Prostaglandin F1α release, Maximum Inhibition (% Inhibition), N = 1 (200 nM) [14]: 2%; 6-keto Prostaglandin F1α release, Maximum Inhibition (% Inhibition), N = 2 (333 nM) [14]: 8%; ELISA reading [15]: 1.14; ELISA reading [16]: 2.62; ELISA reading [17]: 3.02 |

Source: patent publication US20100260765A1 (AstraZeneca / MedImmune, published 2010)
